Data on seven molecules can be found in patent US20140056903A1 (Regeneron, published 2014).

A word on the Kd: it is a measure of binding affinity in units of concentration. The term koff denotes the rate constant with which the complex falls apart. In general, kon refers to a measure of how fast the partners come together.

The target in experiment [1] is T1, monkey GFRα3 expressed with a C-terminal myc-myc-hexahistidine tag (monkey (Mf), UniProt O60609 32-374 (human entry), limits assumed).
T1 construct: also called MfGFRα3-mmh; MfGFRα3-mmH
T1 chain: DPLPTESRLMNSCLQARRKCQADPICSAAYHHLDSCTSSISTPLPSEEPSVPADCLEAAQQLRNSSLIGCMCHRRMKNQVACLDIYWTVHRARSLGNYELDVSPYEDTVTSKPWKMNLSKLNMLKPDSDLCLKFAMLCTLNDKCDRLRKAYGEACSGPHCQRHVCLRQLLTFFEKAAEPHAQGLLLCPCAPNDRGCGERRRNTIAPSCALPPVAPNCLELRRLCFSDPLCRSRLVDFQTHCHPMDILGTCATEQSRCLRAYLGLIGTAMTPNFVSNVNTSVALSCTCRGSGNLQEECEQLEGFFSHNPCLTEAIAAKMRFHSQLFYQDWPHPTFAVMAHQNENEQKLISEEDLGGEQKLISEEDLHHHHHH
The experiment can be described thus: SPR, Ab captured, 25C. Put shortly: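 First, each antibody was captured on an anti-mouse or anti-human IgG chip surface. Next, antigen was injected in 3-fold series, 200–7.4 nM for mmh and 100–3.7 nM for hFc constructs, with association monitored up to 4 min and dissociation up to 20 min. Finally, the traces were fitted to a 1:1 model.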
Background: SPR reads the build-up and loss of mass on a sensor chip optically.

For experiment [2], the target named is T2, human GFRα3 expressed with a C-terminal mFc tag (human).
T2 construct: also called hGFRα3-mFc
T2 chain: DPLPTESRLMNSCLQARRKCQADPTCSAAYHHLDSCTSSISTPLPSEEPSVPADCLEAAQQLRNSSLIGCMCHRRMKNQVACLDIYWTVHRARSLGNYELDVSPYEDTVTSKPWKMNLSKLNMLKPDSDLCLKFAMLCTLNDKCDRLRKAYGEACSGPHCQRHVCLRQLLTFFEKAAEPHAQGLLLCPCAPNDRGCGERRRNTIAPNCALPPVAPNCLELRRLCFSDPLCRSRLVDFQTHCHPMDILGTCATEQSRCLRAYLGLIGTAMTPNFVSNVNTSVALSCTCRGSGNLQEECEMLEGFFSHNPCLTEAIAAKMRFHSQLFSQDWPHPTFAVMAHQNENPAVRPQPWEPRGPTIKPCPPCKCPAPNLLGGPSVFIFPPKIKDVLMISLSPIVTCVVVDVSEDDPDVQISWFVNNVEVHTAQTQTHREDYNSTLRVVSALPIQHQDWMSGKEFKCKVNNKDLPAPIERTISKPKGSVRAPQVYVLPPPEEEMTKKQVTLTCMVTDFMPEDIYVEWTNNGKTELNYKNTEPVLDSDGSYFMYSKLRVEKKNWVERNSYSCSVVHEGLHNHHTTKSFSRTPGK
The experiment is described as follows: SPR, Ab captured, 37C. The procedure: (§1) Antibodies were tested for binding to human GFRα3 expressed with either a C-terminal myc-myc-hexahistidine tag (hGFRα3-mmh; SEQ ID: 370, a C-terminal hFc tag (hGFRα3-hFc; SEQ ID:371), or a C-terminal mFc tag (hGFRα3-mFc; SEQ ID:372), as well as monkey GFRα3 expressed with a C-terminal myc-myc-hexahistidine tag (MfGFRα3-mmh; SEQ ID:373). Anti-GFRα3 antibodies were captured on either a goat anti-mouse IgG polyclonal antibody (GE Healthcare, #BR-1008-38) or a mouse anti-human IgG monoclonal antibody (GE Healthcare, #BR-1008-39) surface created through direct amine coupling to a Biacore CM5 sensor chip. Kinetic experiments were carried out using HBS-EP (10 mM HEPES, 150 mM NaCl, 3 mM EDTA, 0.05% Surfactant P20, at pH 7.4) or PBS buffer containing 0.05% v/v surfactant P20 as both the running buffer and the sample buffer. Binding to human GFRα3-mmh or monkey GFRα3-mmh was evaluated by injecting several concentrations ranging from 200 to 7.4 nM (3-fold dilutions) across the captured antibody surface. Binding to human GFRα3-mFc or human GFRα3-hFc was evaluated by injecting several concentrations ranging from 100 to 3.7 nM (3-fold dilutions) across the captured antibody surface. Antibody-antigen association was monitored for up to 4 minutes, while dissociation in buffer was monitored for up to 20 minutes. Kinetic association (kₐ) and dissociation (kd) rate constants were determined by processing and fitting the data to a 1:1 binding model using Scrubber 2.0c curve fitting software. Binding dissociation equilibrium constants (KD) and dissociative half-lives (t_{1/2}) were calculated from the kinetic rate constants as: KD (M)=kd/kₐ and t_{1/2} (min)=[ln 2/(60*kd)].

For experiment [3], the target named is T1, monkey GFRα3 expressed with a …. The experiment is described as follows: SPR, Ab captured, 37C. On the procedure:
as §1

In experiment [4] the target is T3, human GFRα3 expressed with a C-terminal myc-myc-hexahistidine tag (human, UniProt O60609 32-374, biotinylated (sites not given) in ELISA format 2 and in the Octet cross-competition; not in SPR).
T3 construct: also called hGFRα3-mmh; hGFRα3-mmH
The experiment can be described thus: Octet cross-competition; biotin-hGFRα3-mmH pre-saturated with first antibody H4H2350P. On the procedure:
A cross-competition assay was conducted to assess the ability of select antibodies to compete with one another for binding to human GFRα3 using an Octet RED384 biosensor (Fortebio Inc.). The entire experiment was performed at 25° C. with the flow rate of 1000 rpm in Octet HBST buffer (0.01 M HEPES pH7.4, 0.15M NaCl, 3 mM EDTA, 0.05% v/v Surfactant P20, 0.1 mg/mL BSA). To assess whether 2 antibodies were able to compete with one another for binding to their respective epitopes on biotinylated recombinant human GFRα3 expressed with a C-terminal myc-myc-hexahistidine tag (biotin-hGFRα3-mmH; SEQ ID:370), around ˜1.2 nm of biotin-hGFRα3-mmH was first captured onto streptavidin-coated Octet sensor tips (Fortebio Inc, #18-5019) by submerging the tips for 1 minute into a 10 μg/mL solution of biotin-hGFRα3-mmH. The antigen coated sensor tips were then placed into wells containing 25 μg/mL solution of a first anti-GFRα3 monoclonal antibody for 4 minutes to saturate the biotin-hGFRα3-mmH surface. The sensor tips were then subsequently dipped into wells containing 25 μ/mL solution of a second anti-GFRα3 monoclonal antibody. The sensor tips were washed in Octet HBST buffer in between every step of the experiment. The real-time binding response was monitored during the course of the experiment and the binding response at the end of every step was recorded as shown in FIG. 9. The response of mAb-2 binding to biotin-hGFRα3-mmH pre-complexed with the first antibody was compared and competitive/non-competitive behavior of different anti-GFRα3 monoclonal antibodies was determined.
For orientation: In BLI a coated tip is dipped into the sample, and binding shifts an interference pattern.

B1: H4H2291S (antibody, human IgG4, V domains shown)
VH: EVQLVESGGGLVQPGESLRLSCAASGFTFSNYAMSWVRQAPGKGLEWVSVISGSGGSTYYADSVKGRFTMSRDNSKNTLYLQMNSLRAEDTAVYYCAKPPSRAARYFNYGMDVWGQGTTVTVSS
VL: AIRMTQSPSSVSASVGDRVTITCRASQGISSWLAWYQQKPGKAPKLLIYAASSLQSGVPSRFSGSGSGTDFTLTISSLQPEDFATYYCQQANSFPFTFGGGTKVEIK
notes: human IgG4 Fc (H4H)
In experiment [1], B1 gave a Kd of 1.85 nM, a koff of 0.000279 s⁻¹, a kon of 151000 M⁻¹ s⁻¹ and a t1/2 of 41 min. In addition, in experiment [2], the Kd came out at 0.0289 nM, the koff was 3.84e-05 s⁻¹, the kon is 1.33e+06 M⁻¹ s⁻¹ and the t1/2 turned out to be 301 min. In experiment [3], this molecule returned a Kd of 1.94 nM, a koff of 0.000693 s⁻¹, a kon of 357000 M⁻¹ s⁻¹ and a t1/2 of 17 min. Besides, in experiment [4], the “binding response of second antibody (nm)” value worked out at 2.57 nm.

B2: H4H2296S (antibody, human IgG4, V domains shown)
VH: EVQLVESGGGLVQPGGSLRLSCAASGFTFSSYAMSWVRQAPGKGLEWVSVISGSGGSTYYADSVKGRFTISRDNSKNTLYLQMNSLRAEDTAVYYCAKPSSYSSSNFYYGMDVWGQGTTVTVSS
VL: DIVMTQSPSSVSASVGDRVTITCRASQGISSWLAWYQQKPGKAPKLLIYAASSLRSGVPSRFSGSGSGTDFTLTITSLQPEDFATYYCQHTNSFPFTFGPGTKVEIK
notes: human IgG4 Fc (H4H)
Consider B2, for which, in experiment [1], binding was characterised by a dissociation constant (Kd) of 3.37 nM, the koff came out at 0.000651 s⁻¹, the kon amounted to 193000 M⁻¹ s⁻¹ and the t1/2 came to 18 min. Also, in experiment [2], the Kd came to 0.0294 nM, the koff is 4.74e-05 s⁻¹, the kon is 1.61e+06 M⁻¹ s⁻¹ and the t1/2 was 244 min. In experiment [3], the Kd was 10.3 nM, the koff stood at 0.00285 s⁻¹, the kon turned out to be 277000 M⁻¹ s⁻¹ and the t1/2 was 4 min. For the same molecule, in experiment [4], the “binding response of second antibody (nm)” value worked out at 2.1 nm.

B3: H4H2295S (antibody, human IgG4, V domains shown)
VH: EVQLVESGGGLVQAGGSLRLSCVASGFTFSSYAMSWVRQAPGKGLEWVSAISGSGGSTYSADSVKGRFTISRDNSKNTLYLQMNSLRAEDTAVYYCTKPSSYSSSNFYYGMDVWGQGTTVTVSS
VL: DIQMTQSPSSVSASVGDRVTITCRASQGISSWLAWYQQKPGKAPKLLIYTASSLQSGVPSRFSGSGSRTDFTLTISSLQPEDFATYYCQQTNSLPLTFGPGTKVEIK
notes: human IgG4 Fc (H4H)
Turning to B3, in experiment [1], the affinity, expressed as Kd, was 5.32 nM; the koff was 0.000973 s⁻¹; the kon is 183000 M⁻¹ s⁻¹; the t1/2 came to 12 min. Moreover, in experiment [2], the Kd was found to be 0.0301 nM, the koff was found to be 4.88e-05 s⁻¹, the kon is 1.62e+06 M⁻¹ s⁻¹ and the t1/2 came to 237 min. Further, in experiment [3], the Kd stood at 20.4 nM, the koff worked out at 0.00561 s⁻¹, the kon is 276000 M⁻¹ s⁻¹ and the t1/2 was 2 min. Besides, the “binding response of second antibody (nm)” value in experiment [4] was 2.05 nm.

B4: H4H2294S (antibody, human IgG4, V domains shown)
VH: EVQLVESGGGLVQPGGSLRLSCAASGFTFSSYAMSWVRQAPGKGLEWVSVISGSGGSTYYADAVKGRFTISRDNSKHTLYLQMNSLRAEDTAVYYCTKPSSYSSSNFYYGMDVWGQGSTVTVSS
VL: DIQLTQSPSSVSASVGDRVTITCRASQGISSWLAWYQQKPGKAPKLLIYAASSLQSGVPSRFSGSGSGTDFTLTISSLQPEDFATYYCQQTNSFPFPFGPGTKVDIK
notes: human IgG4 Fc (H4H)
In experiment [1], B4 yielded a Kd of 0.627 nM, a koff of 0.000204 s⁻¹, a kon of 325000 M⁻¹ s⁻¹ and a t1/2 of 57 min. In experiment [2], this molecule showed a dissociation constant (Kd) of 0.0209 nM, a koff of 3.46e-05 s⁻¹, a kon of 1.66e+06 M⁻¹ s⁻¹ and a t1/2 of 334 min. In experiment [3], this molecule returned a Kd of 2.25 nM, an off-rate constant (koff) of 0.000974 s⁻¹, a kon of 433000 M⁻¹ s⁻¹ and a t1/2 of 12 min. Also, the “binding response of second antibody (nm)” value in experiment [4] amounted to 2 nm.

B5: H4H2212N (antibody, human IgG4, V domains shown)
VH: EVQLLESGGGLVQPGGSLRLSCAASGFTFSSYAMSWVRQGPGKGLEWVSGISGSGGSTYNADSVKGRFTISRDNSKNTLYLQMNSLRAEDTAVYYCAKDSGTYWYYFDYWGQGILVTVSS
VL: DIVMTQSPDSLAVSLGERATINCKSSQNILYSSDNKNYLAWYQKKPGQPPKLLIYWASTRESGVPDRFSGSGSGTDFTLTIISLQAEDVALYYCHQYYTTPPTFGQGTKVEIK
notes: human IgG4 Fc (H4H)
Turning to B5, in experiment [4], the “binding response of second antibody (nm)” value is 1.57 nm.

B6: H4H2236N3 (antibody, human IgG4, V domains shown)
VH: EVQLLESGGNLVQPGGSLRLSCAASGFTFSSYAMTWVRQAPGKGLEWVSTISGSGTSTYYADSVKGRFTISRDNSRDTVFLQMNSLRAEDTAVYYCSKPSALRFLHWLAMDVWGQGTLVTVSS
VL: DIQMTQSPSSLSAFVGDRVTITCRASQDIRNYLDWFQQKPGKAPKSLIYAASNLQSGVPSRFGGSGSGTDFTLTINSLQPEDFVTYYCQQYNSYPPTFGGGTKVEIK
notes: human IgG4 Fc (H4H)
With B6, the “binding response of second antibody (nm)” value in experiment [4] amounted to 1.98 nm.

B7: H4H2243N2 (antibody, human IgG4, V domains shown)
VH: QVQLVQSGAEVKKPGASVKVSCKASGYTFTSYGIIWVRQAPGQGLEWMGWISGYNGNTNYAQNLQGRVTMTTDTSTTTAYMELRSLRSDDTAVYYCARWGIATRPYYYYGMDVWGQGTTVTVSS
VL: DIQMTQSPSSLSASVGDRVTITCRASQDITNYLAWFQQKPGKAPKSLIYAASSLQSGVPSKFSGSGSGTDFTLTISSLQPEDFATYYCQQYNSYPPTFGPGTKVDIK
notes: human IgG4 Fc (H4H)
On to B7, for which, in experiment [4], the “binding response of second antibody (nm)” value was found to be 1.72 nm.
